The source of these data is the domain aggregation screens of Martell et al. (2025).

Where only a bound is given, the exact number is not on record here.

The series can be described thus: soluble fraction after stress (log2 fold change); higher = more stays soluble; pooled small domains, quantitative proteomics. The following applies: stress: 50 degC. The method in brief:
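Pooled custom libraries of small protein domains were each held under stress at 50°C. The read-out, high-throughput quantitative proteomics, tracked how much of each protein stayed soluble. This is reported as a base-two log fold change used to indicate aggregation propensity. Higher values mean more protein remains in solution.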

Regarding “HMRAVEGKRLKRLLRTNLIAIERDQILQYPLRKRPLAIVTRAVRATNPDAVIVNDAGDDVFARALDVLLAS”, the “soluble fraction (log2)” value was -1.34.

Regarding “HMQQVIQSGQKVQLMATDGSFQVSAEGVALKNGSVGEVIGVRMPSGRVISGVVSASGAVEVR”, the “soluble fraction (log2)” value came out at 0.146.

Turning to “HMSTINGIEKYLSSGLIPYIGPKTAKRIVEKFGLDTLEIIQYNPERLKEIEGIGDKKLKKIVEAFEEQG”, the “soluble fraction (log2)” value was -0.102.

On to “HMGPESKLTDAIKDYIYALYENLKGKSKFRNTIIEEVKKLYGVDISRESIRRVVNQKTDAETTENDDDEKA”, for which the “soluble fraction (log2)” value was ≥ 0.62.

With “HMNPHIQFWSLLRRQPDYNSAYKDELKAMFVWQWSGEKTESLNEFYKTDPYRYKSMLMDMRNRAL”, the “soluble fraction (log2)” value was -3.15.

As for “HMPESFSEMQKRTGVGEFSDDALSAKYVDSIDADVMSLDEYIMKVRGISLDDLEAERALRAR”, the “soluble fraction (log2)” value was 0.0325.

On to “HMGKKQLVVDLQSIITDVPAALKSYGLEIGQDGKSLIYTYDTKGERTGITTLLNDLQKAGLQMTDMKTQQ”, for which the “soluble fraction (log2)” value is 0.0536.

As to “HMKKVKVPNVVGMSLKEARDALSAVNIAVNQVAGSVEDKSVVTEQSLKAGDEVDEGSSLNLTTEYK”, the “soluble fraction (log2)” value is -0.156.

Regarding “HMTPVSQIATKDIEEKIDSLSDEYKDPFILHFKGFKYKEIADQLDIPIGTVKSRIFIARKKLIDLLPDY”, the “soluble fraction (log2)” value was -0.115.

Turning to “HMDENILKTRIEDLDLSVRTIKALTGASIRTVSGLARKKESDLLEISGLGDKGIQEIKRALGSLGITL”, the “soluble fraction (log2)” value came out at 0.0868.

Turning to “HMVTVNAFGKSGPEPAAMTKEALAKGADEVRVIVDSPTAAASVRDFLIGAGLRVQLQDDEGQLIVVGEKK”, the “soluble fraction (log2)” value came to 0.215.

“HMTSTEQEILIEHMVDRLPALRKKYGISQTELGEKIGLSRQTISAIERKTTPLTWTTMLAILMFFT”: the “soluble fraction (log2)” value is -1.7.

In the case of “HMGEILYSGVLKGGDGPEATKLALEKFLGEANTQVAGRIGVQPETQVIWLSREAVDSAASTLSQHKGNMYV”, the “soluble fraction (log2)” value was -0.085.

Regarding “HMRTYDPQAVELNNKALELINQGRLDSALLVYDQSIKTDKTYYFPHIGKSIIYMRKKDWNKAFEETQQAIK”, the “soluble fraction (log2)” value worked out at 0.18.

With “HMSSIVLTARSGRAALAYRVKSIGVDLSKDQLDLVYKTFLGFADKKKEIIDTDIPQILKASGI”, the “soluble fraction (log2)” value was -1.92.

On to “HMSSKFKIVGEILSIKKSDILYIIEILSNNEVVKATAVEDEIKDLKIGDKILLSSKAFNPIVNK”, for which the “soluble fraction (log2)” value is -0.487.

As for “HMDPLPDEVQEVIDMVDGFKAMDELSEADKADVKAAYDAYNALSAEHKAMVPEHIVTFLNRAYDKLFD”, the “soluble fraction (log2)” value was determined as 0.0291.

In the case of “HMQVFDSNEIDEVVKKVIENNPQAVADFKKGKSNALQFLAGQVMRETKGRFNPNVVQERIRLLLT”, the “soluble fraction (log2)” value was 0.458.

With “HMLPAGAAAPLEDGSAPEGYTVKGNADSGLYHEPDGRWYDATVAEFWFKTAADAEAAGFRKAGS”, the “soluble fraction (log2)” value was 0.121.

On to “HMRLSESLLDDIPGIGAARKRALLQSFGSVRKLRHADAEEIAAKVPGIGLNFAEKIVEALRKK”, for which the “soluble fraction (log2)” value amounted to 0.205.

As to “HMRIAQYRQIENDLLEQINLGYYKKGDLIPTELELSATYHVSRVTVRKATDNLVAKGILQRVAGVGTFVSR”, the “soluble fraction (log2)” value was -1.87.

On to “HMEIYEEDRTKVVNDLMDQILNRQITMDAAATKFINIRNSLGTTITKEDEQNLEMLRGLIFDKT”, for which the “soluble fraction (log2)” value turned out to be 0.16.

For “HMDLANRSLDRGITILESLARNGASSLADLHRDSGIAKSTIRRLLGTLIQHRLVRRSVADGLYRVTIPLPA”, the “soluble fraction (log2)” value was -1.18.

“HMTIHVMEIKSLLPIKILDESQHLVQSFSSKNPTSYNYRLIFSDKSKLENIKKTINENKDVESIEIRYA”: the “soluble fraction (log2)” value was -0.816.

For the sequence “HMGRKIDDPSSMTGAEKAAVILLALGDEQRQLWEMMDDEEIRVVSQAMVNLGNVTSGAVEKLIMEFVGSMS”, the “soluble fraction (log2)” value is -0.243.

For “HMQKLSPKQRRGNIIELIKENPTITAKNISTIFNLNQRTIERDLAKLTEEGYIKYEGSSKDGKWVFL”, the “soluble fraction (log2)” value is 0.087.

On to “HMGTQIKSPMPGTILDVRVNVGDTVKEGDILMILEAMKMENEILAPVSGKVAAIQVSKGTAVNSGDLLAVL”, for which the “soluble fraction (log2)” value turned out to be 0.224.

For “HMGMYFTEMRKNEGLIALNGVAESNKRVSDLMDNLKDSSSFDAADIKAVKSGSGDASSLMDFELLVT”, the “soluble fraction (log2)” value was found to be 0.113.

Consider “HMRLADHVVEKLLALVQERGLQPGQKLPAERQLAEVLGVSRTSVREAIQKLVSQGVLSARRGDGTYVQS”, for which the “soluble fraction (log2)” value stood at 0.00808.

Turning to “HMPDYAFEGVVIKLTHRDYDRWKAGFPDVDLPPYLTARDAWLSEQTPADRKNWFVSTATDLRNFQKREAI”, the “soluble fraction (log2)” value is -1.66.

On to “HMSTPVPIEGQPTENLNLRDQPSTSGKILTTIPKGKTVTILSEKNANGWYKVSYNGKTGYVSGSYFKVTK”, for which the “soluble fraction (log2)” value turned out to be 0.317.

In the case of “HMKNIFDWLKQINYHKQPADSFTEKDWELFNSYMVHRFMSMNREFIEVVNYVQEMPPQEKILIYNIYREF”, the “soluble fraction (log2)” value is -1.02.

“HMDPLGHVIKKKRLQLGMTLRDLAAKAGVHHATIDRIETDQFKVVDPSTLVKIAEALHLDQLYLLSLN”: the “soluble fraction (log2)” value was -0.0139.

As for “HMTTPDIIVPDVKGMTVAEAQKALEEKGFKVKLEEMTQEGAVPGDVIRIDPVAGTKRKEGAKITLLIARG”, the “soluble fraction (log2)” value stood at 0.161.

Turning to “HMSFSQNIGKRIREERLRLNLTQEKLAEDVNLSMAYIGQVERGDRSLTLDNLIIVAKRLGVTIDYLLS”, the “soluble fraction (log2)” value is -1.25.

For “HMETPQIVARGDLITMVFRSGSLVLTAKGKALENGAMGDTIRVVNSDSNKTLAARVSASREVTVSE”, the “soluble fraction (log2)” value is -0.417.

In the case of “HMEEPFRIEKKGDIYYISGKTVERLVAMTDLDNDSAVKRLQRTLKRMGVEDALREHGINPGDTVVIGNYEF”, the “soluble fraction (log2)” value was -0.0245.

Consider “HMDNMTEMQKAVTALIEKSGGSIDNLSVIYDHLKKKYPSFDLKDYGYSRFSSFLRSMENIMVRGNAVTLRS”, for which the “soluble fraction (log2)” value was 0.0337.

With “HMQQSVSSLVRRYMLQTIPGINFSLKSTALALNMSDRTLQRKLLSENTSYQIILDDVRKELAIKYLKE”, the “soluble fraction (log2)” value was -3.19.

Regarding “HMQPADYSDLYAAAKSAGEADMRAAFALTDKQERTAAVNAARETIKAALSEEQLADANLGSALKKLEAGV”, the “soluble fraction (log2)” value was -0.337.

Take “HMARRSRADAVRNREALIDAAKAAFTEAGPDVSLEEIARRAGVGIGTLYRHFPTRDAVIEAVYR”: the “soluble fraction (log2)” value amounted to 0.0559.

As to “HMKIRKAVIPAAGLGTRVLPASKSIPKEMLPIVDKPVIQYIVEEAVKAGITEILIITGRGKGAIEDHFDRS”, the “soluble fraction (log2)” value was -0.122.

With “HMKRVTRQRTEILRVIDESERPLGPQEILQAGREAIPSLSIATIYRTLRDLLAEELIKTVALPGDSPRYES”, the “soluble fraction (log2)” value was -1.31.

Consider “HMNPNSIDEKLKLLSNREKEVAILVLKKLSYFEISEQLNITIRTVKAHTKNIYEKFNVSNRLAFLLLFN”, for which the “soluble fraction (log2)” value is -0.225.

Regarding “HMGDTIGEQKAKEIALEHAGLKSSDVTFIRAVLEYDDRNWEYDVEFYDADTYTEYDYEIDAHTGKILSFDH”, the “soluble fraction (log2)” value amounted to 0.0993.

On to “HMSMQIILLDKVVNLGGLGDVVKVKDGYARNYLIPQGKAKRANTANLAEFEARRVELERLAAEQLAQAQA”, for which the “soluble fraction (log2)” value was 0.0814.

With “HMAIDLPVTTVNGKDYYYYDVQPKETIFSLSQRLGISREEIISYNPGVDGGLKAYTRLYFPVESGL”, the “soluble fraction (log2)” value is -0.201.

For the sequence “HMAVPFTIDVSQNGRYFIEEDNQVVEVSIGFLEDRFLRIIKSNPDIEVIIRGDAKASYESIAELLAVLQ”, the “soluble fraction (log2)” value was -1.06.

With “HMKAMIIVMKPGADMATISKVLKTIETNGFKPHLSKGEETTVIGVIGDERKLNPDIFSTLEGVERIVPVA”, the “soluble fraction (log2)” value amounted to 0.255.

For the sequence “HMQDKLLRKKEVLEMVSITNSTMYRMIGSGQFPRPIRLDNANINSGVRWKLSEINTFIEQRF”, the “soluble fraction (log2)” value was -0.409.

On to “HMSTPLPTGLPRGTIIEYTVQTDETLAIIAAKFNSTVDDIMTRNKITDPNTIYAGQILKVAINLVTP”, for which the “soluble fraction (log2)” value was 0.15.

As to “HMVTPAQQARDTLLGALVGLARATTSEPKTDDTDVVLNAGLRLAAQPDAPEERLQRMLAIVQTEKHRV”, the “soluble fraction (log2)” value came to 0.116.

Take “HMSERVVEIDPSQLRPGLFIRLPSGWMNHPFLFNQFRINSAEQVEIIQKLGLKTVQYLPERSSTQALPRA”: the “soluble fraction (log2)” value is -0.499.

For “HMPLQKNRPKIKPQKVVFLFSVEWMWSPAHNRIDSYFINIKPSRYYLWNSFFDRHSFSDYWDFIGYTEN”, the “soluble fraction (log2)” value is -0.0868.

Take “HMGAQKITIPDFSNQEATQVYAELKNMGLEYTESRMNHPSIASGYVIKTEPTKGSEVKAGTTVTVYVSLG”: the “soluble fraction (log2)” value is -0.0535.

As to “HMYSQEEKRYMEIMEIKPQELSAENLKKQYKKLVKKYHPDLHQDDKQAAEEKFKQLTNAYQVLMRRF”, the “soluble fraction (log2)” value stood at 0.0779.

With “HMQSEESTHIGERMLNQALRAMHVEPSAVKEKQWEKLIRDYSVKNKQDILTDIGLGKRQSVMVAHQLLAI”, the “soluble fraction (log2)” value stood at 0.0574.

In the case of “HMTKQDYLTALQQELNKNAVADAEDIVSEYEQHFQFKLADGFTEEEIAAKLGAPAQIALQFAG”, the “soluble fraction (log2)” value was found to be 0.167.

In the case of “HMTNKQEYAYQWLKSSIIENKIKPSTLLVERHLSEMLHISRTPVRTALMRLADEGFVVISPGRGMVVA”, the “soluble fraction (log2)” value was -2.03.

Regarding “HMINIQYSYNDGKETLHNLSPEVIAEKIMDDPNGYHIVWKQGMVGWVNANDIDDIAKLLRQKK”, the “soluble fraction (log2)” value was -0.0619.

Turning to “HMRQGHLDLLRQIHALPPSTREVVYLRAFGGLSFREIGDVLGRTETWARVTFYRGKEALRKG”, the “soluble fraction (log2)” value is 0.0194.

Regarding “HMKSYQKITPATEGNYLTTYREGDDIKTYEGVKAMYTPADFDASSVREITPEEHQSYQKAKEQALQEETEQ”, the “soluble fraction (log2)” value was -0.225.

With “HMIESVMVGIKELLGDTIDQKYEKYIRLGGIPSDEVDEFNSVFSAYEKVNGNHNGKKKYDYVMNNLPIIPV”, the “soluble fraction (log2)” value was -0.26.

Consider “HMSNATELVYDDGRKLLISYETLVGGYHPDLGWIRTAKTYSISTDKHIRNYFNNVTNPRVVGEDILETLKI”, for which the “soluble fraction (log2)” value was determined as 0.0667.

Regarding “HMQEPIAVPDFINKSAVDVLVNPVFTQNFKLVSEDVYDDKVPEGYIVGQSVKSDTLVQPGTEIVIYV”, the “soluble fraction (log2)” value was 0.175.

With “HMDNMFMPPVNGWDVRQALQKLQNEMGLQVKMEYSPSETITEGYVISYTPIDGMKVEKGDEVTLVISTGPE”, the “soluble fraction (log2)” value worked out at 0.225.

As for “HMSQLTVGTVVTGNASLQTQGLKLPSFASGSRPASPNIGQMIWNSSDAKAQIWNGSEWDDVG”, the “soluble fraction (log2)” value is -0.198.

With “HMFSPSDEDLELAHRQIRAFEEVEANGKSIAVVDGRIVESLHIVTARDTLEKAKAITALAEEM”, the “soluble fraction (log2)” value is 0.115.
